Source: paper doi:10.1101/2025.06.24.661301, “Homodimerized Arpins: Binding to Arp2/3 Complexes with Positive Synergy to Inhibit Lamellipodia-Dependent Tumor Metastasis” (bioRxiv, 2025)
No end group written: not given here.

Target: Arp2/3 complex (human, UniProt P61158 1-418; P61160 1-394; O15143 1-372)
Assay: SPR; Biacore 8K, 25°C, PBS with 0.05% Tween-20; Arp2/3 immobilised on CM5 chip; analytes injected at 30 μL/min, 60 s association, 60 s dissociation; Arpin^FM 3.125-200 μM, ArpinCT, GST-aCT and D-aCT 0.625-40 μM, AI-designed variants 0.156-10 μM
Conditions: both partners purified

Kd: 5.5 µM
B1: D-aCT (dual-tailed peptide of two Arpin CTs linked at their N-termini by BM(PEG)3) (peptide)
chain: CSSGGSSGGSSGGSSGGGASWTDNIMAQKSSKGAAAEIREQGDGAEDEEWDD
modifications: not fully specified (residue 1); also: dimer: N-terminal Cys linked to N-terminal Cys of second chain by BM(PEG)3
